Values quoted from earlier work in publication PMC8242001.

Biological target: eIF4E (Saccharomyces cerevisiae) (UniProt P07260)
Test: ITC

Chain of UniProt P07260 (P07260 whole entry): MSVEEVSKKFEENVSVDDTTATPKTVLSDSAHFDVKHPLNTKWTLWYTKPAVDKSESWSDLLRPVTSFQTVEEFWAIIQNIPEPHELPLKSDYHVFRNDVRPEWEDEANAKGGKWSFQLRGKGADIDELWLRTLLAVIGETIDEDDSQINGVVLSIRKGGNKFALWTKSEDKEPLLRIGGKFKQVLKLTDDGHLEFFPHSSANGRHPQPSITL

Caf20 (from UniProt P12962)
Kd: 20 nM
